Results published in patent US20260209317A1.
Where two headings read alike, the source gives them in different places.

What was measured:
[1] = biological target: SARS-CoV-2 WA-1 S-2P spike protein (SARS-CoV-2) (UniProt P0DTC2)
[2] = biological target: SARS-CoV-2 Omicron BA.4/BA.5 spike protein (on pseudotyped lentivirus) (SARS-CoV-2) (UniProt P0DTC2)
[3] = biological target: SARS-CoV-2 Omicron BA.4.6 spike protein (on pseudotyped lentivirus) (SARS-CoV-2)
[4] = biological target: SARS-CoV-2 Omicron XBB spike protein (on pseudotyped lentivirus) (SARS-CoV-2) (UniProt P0DTC2)
[5] = biological target: SARS-CoV-2 Omicron BA.1 spike protein (on pseudotyped lentivirus) (SARS-CoV-2) (UniProt P0DTC2)
[6] = biological target: SARS-CoV-2 Omicron BA.2.75.2 spike protein (on pseudotyped lentivirus) (SARS-CoV-2)
[7] = biological target: SARS-CoV-2 Omicron BA.4/BA.5 spike protein (on pseudotyped lentivirus) (SARS-CoV-2) (UniProt P0DTC2); remark: listed apart in the source
[8] = biological target: SARS-CoV-2 Omicron BA.4.6 spike protein (on pseudotyped lentivirus) (SARS-CoV-2); remark: listed apart in the source
[9] = biological target: SARS-CoV-2 Omicron BA.2.75 spike protein (on pseudotyped lentivirus) (SARS-CoV-2) (UniProt P0DTC2)
[10] = biological target: SARS-CoV-2 Omicron BA.2.12.1 spike protein (on pseudotyped lentivirus) (SARS-CoV-2) (UniProt P0DTC2)
[11] = biological target: SARS-CoV-2 Omicron BJ.1 spike protein (on pseudotyped lentivirus) (SARS-CoV-2) (UniProt P0DTC2)
[12] = biological target: SARS-CoV-2 Omicron BQ.1.1 spike protein (on pseudotyped lentivirus) (SARS-CoV-2) (UniProt P0DTC2)

**Q.** For DH1047 (antibody), which % inhibition of ACE2 binding [1] is on record?
**A.** The % inhibition of ACE2 binding was 113%.

**Q.** Which % inhibition of ACE2 binding [1] does the source give for BD55-5514 (antibody) here?
**A.** Its % inhibition of ACE2 binding is 99%.

**Q.** Which % inhibition of ACE2 binding [1] does the source give for LY-CoV1404 (antibody) here?
**A.** The % inhibition of ACE2 binding was 99%.

**Q.** What about the neutralization IC50 [2] of the same substance?
**A.** Its neutralization IC50 is 1 ng/mL.

**Q.** And the neutralization IC80 [3]?
**A.** The neutralization IC80 was 1.4 ng/mL.

**Q.** What about the neutralization IC50 [4] of the same substance?
**A.** Its neutralization IC50 is over 10000 ng/mL.

**Q.** And the neutralization IC80 [4]?
**A.** The neutralization IC80 was over 10000 ng/mL.

**Q.** And the neutralization IC50 [5]?
**A.** Its neutralization IC50 is 2 ng/mL.

**Q.** And the neutralization IC80 [5]?
**A.** The neutralization IC80 was 5 ng/mL.

**Q.** And the neutralization IC50 [6]?
**A.** The neutralization IC50 was 1 ng/mL.

**Q.** What about the neutralization IC80 [6] of the same substance?
**A.** Its neutralization IC80 is 5 ng/mL.

**Q.** And the neutralization IC50 [7]?
**A.** The neutralization IC50 was 1.4 ng/mL.

**Q.** And the neutralization IC80 [7]?
**A.** The neutralization IC80 was 3 ng/mL.

**Q.** What about the neutralization IC50 [8] of the same substance?
**A.** The neutralization IC50 was 0.4 ng/mL.

**Q.** What about the neutralization IC80 [8] of the same substance?
**A.** The neutralization IC80 was 1 ng/mL.

**Q.** And the neutralization IC50 [9]?
**A.** The neutralization IC50 was 3 ng/mL.

**Q.** And the neutralization IC80 [9]?
**A.** The neutralization IC80 was 15 ng/mL.

**Q.** And the neutralization IC50 [10]?
**A.** The neutralization IC50 was 1 ng/mL.

**Q.** And the neutralization IC80 [10]?
**A.** Its neutralization IC80 is 4 ng/mL.

**Q.** And the neutralization IC50 [11]?
**A.** Its neutralization IC50 is over 10000 ng/mL.

**Q.** What about the neutralization IC80 [11] of the same substance?
**A.** Its neutralization IC80 is over 10000 ng/mL.

**Q.** And the neutralization IC50 [12]?
**A.** Its neutralization IC50 is over 10000 ng/mL.

**Q.** And the neutralization IC80 [12]?
**A.** Its neutralization IC80 is over 10000 ng/mL.

**Q.** With CB6 (antibody) as the substance, how does the % inhibition of ACE2 binding [1] read?
**A.** The % inhibition of ACE2 binding was 93%.

**Q.** For S2H97 (antibody), which % inhibition of ACE2 binding [1] is on record?
**A.** Its % inhibition of ACE2 binding is -3%.
